# Assay results as given in article PMC6050272, “A TRAF3-NIK module differentially regulates DNA vs RNA pathways in innate immune signaling” (Nature Communications, 2018).
# B1: STING, endogenous in mouse cells (natural protein, mouse (endogenous in MEFs and BMDMs), UniProt Q3TBT3 1-378, looked up)
# chain: MPYSNLHPAIPRPRGHRSKYVALIFLVASLMILWVAKDPPNHTLKYLALHLASHELGLLLKNLCCLAEELCHVQSRYQGSYWKAVRACLGCPIHCMAMILLSSYFYFLQNTADIYLSWMFGLLVLYKSLSMLLGLQSLTPAEVSAVCEEKKLNVAHGLAWSYYIGYLRLILPGLQARIRMFNQLHNNMLSGAGSRRLYILFPLDCGVPDNLSVVDPNIRFRDMLPQQNIDRAGIKNRVYSNSVYEILENGQPAGVCILEYATPLQTLFAMSQDAKAGFSREDRLEQAKLFCRTLEEILEDVPESRNNCRLIVYQEPTDGNSFSLSQEVLRHIRQEEKEEVTMNAPMTSVAPPPSVLSQEPRLLISGMDQPLPLRTDLI
# notes: STING (TMEM173), endogenous in murine embryonic fibroblasts and bone marrow-derived macrophages; source: endogenous, MEF lysate and BMDM lysate (cells transfected with B-DNA)
# Molecular target: the molecule itself
# Experiment: semi-native SDS PAGE; whole-cell lysates of WT and Nik-/- BMDMs transfected with B-DNA (2 μg/mL) for the indicated times; native sample buffer without β-mercaptoethanol, not boiled, run on SDS gels; immunoblot for STING
protein,measurement,value
B1,stoichiometry N,2
